# Measurements: patent US20200199213A1 (Eli Lilly, published 2020)
# Where a chain is given by its changes, count along the chain named. Numbers in names are those of the source.
# T1: human ANGPTL3 (human, UniProt Q9Y5C1 17-460)
# T1 construct: Biotinylated in the ELISA assays; also called hANGPTL3; free ANGPTL3
# T1 sequence: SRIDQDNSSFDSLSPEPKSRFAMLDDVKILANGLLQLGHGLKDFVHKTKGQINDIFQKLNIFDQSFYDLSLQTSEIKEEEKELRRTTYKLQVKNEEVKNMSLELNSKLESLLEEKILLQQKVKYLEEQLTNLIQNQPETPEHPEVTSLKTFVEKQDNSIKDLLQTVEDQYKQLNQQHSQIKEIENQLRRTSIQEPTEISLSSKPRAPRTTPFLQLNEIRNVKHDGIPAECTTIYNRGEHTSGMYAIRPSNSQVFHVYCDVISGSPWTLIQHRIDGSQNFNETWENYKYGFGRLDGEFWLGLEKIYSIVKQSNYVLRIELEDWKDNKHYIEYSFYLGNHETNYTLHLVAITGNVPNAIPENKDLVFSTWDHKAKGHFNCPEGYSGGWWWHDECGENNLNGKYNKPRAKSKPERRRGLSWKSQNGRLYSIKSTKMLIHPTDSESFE
# T2: human ANGPTL8 (human, UniProt Q6UXH0 22-198)
# T2 construct: Biotinylated in the ELISA assays; also called hANGPTL8; free ANGPTL8
# T2 sequence: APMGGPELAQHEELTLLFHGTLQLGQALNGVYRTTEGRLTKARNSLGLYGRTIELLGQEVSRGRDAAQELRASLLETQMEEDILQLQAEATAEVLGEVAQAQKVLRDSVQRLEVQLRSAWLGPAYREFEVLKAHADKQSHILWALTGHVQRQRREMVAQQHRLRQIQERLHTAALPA
# T3: human ANGPTL3/8 complex (human, UniProt Q9Y5C1 17-460; Q6UXH0 22-198, limits assumed)
# T3 construct: also called hANGPTL3/8 complex; ANGTPL3/8 complex
# T3 sequence 1: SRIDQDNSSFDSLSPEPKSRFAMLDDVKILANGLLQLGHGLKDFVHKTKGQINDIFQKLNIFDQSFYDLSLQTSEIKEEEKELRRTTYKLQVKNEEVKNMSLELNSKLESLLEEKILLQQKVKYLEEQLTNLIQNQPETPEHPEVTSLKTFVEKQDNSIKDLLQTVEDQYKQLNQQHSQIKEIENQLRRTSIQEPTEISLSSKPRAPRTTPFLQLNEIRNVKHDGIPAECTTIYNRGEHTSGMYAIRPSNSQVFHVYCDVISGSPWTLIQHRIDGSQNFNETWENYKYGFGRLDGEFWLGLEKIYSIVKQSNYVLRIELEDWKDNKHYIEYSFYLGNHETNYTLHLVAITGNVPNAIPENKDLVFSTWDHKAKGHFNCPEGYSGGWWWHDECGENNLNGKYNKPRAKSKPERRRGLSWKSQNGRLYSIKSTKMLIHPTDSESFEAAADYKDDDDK
# T3 sequence 2: T2 sequence
# B1: anti-ANGPTL3/8 complex Ab having a LC of SEQ ID NO:5 and a HC of SEQ ID NO:6 (antibody, human IgG4 S228P, kappa, F234A L235A, V domains shown)
# VH: QVTLKESGPTLVKPTQTLTLTCTFSGFSLSISGVGVGWIRQPPGKALEWLALIYRNDDKRYSPSLKSRLTITKDTSKNQVVLTLTNMDPVDTATYYCARTYSSGWYGNWFDPWGQGTLVTVSS
# VL: DIVMTQTPLSLPVTPGEPASISCRSSQSLLDSDDGNTYLDWYLQKPGQSPQLLIYMLSYRASGVPDRFSGSGSGTDFTLKISRVEAEDVGIYYCMQRIEFPLTFGGGTKVEIKR
# notes: In the ELISA assays tested as IgG from CHO supernatants; also called the Ab
# B2: Ab with LC variant having a E99Q mutation (SEQ ID NO:25) and a HC of SEQ ID NO:6 (antibody, human IgG4 S228P, kappa, F234A L235A, V domains shown)
# VH: B1 VH
# VL: B1 VL with E99Q
# notes: also called E99Q Variant Ab; E99Q Ab
# B3: Ab with LC variant having a D31S mutation (SEQ ID NO:21) and a HC of SEQ ID NO:6 (antibody, human IgG4 S228P, kappa, F234A L235A, V domains shown)
# VH: B1 VH
# VL: B1 VL with D31S
# notes: also called D31S Variant Ab; D31S Ab
# B4: Ab with LC variant having a D33A mutation (SEQ ID NO:22) and a HC of SEQ ID NO:6 (antibody, human IgG4 S228P, kappa, F234A L235A, V domains shown)
# VH: B1 VH
# VL: B1 VL with D33A
# notes: also called D33A Variant Ab; D33A Ab
# Biological target: T1, human ANGPTL3
# Experiment: single point ELISA
# Description: (§1) Single Point ELISA (SPE) Assay: Ab binding selectivity to either the ANGPTL3/8 complex, free ANGPTL3 or free ANGPTL8 is initially verified using standard ELISA assays in a single point format. […] IgG secreted into supernatants after expression in CHO cells are then captured to the assay plate. Biotinylated antigen is added at a concentration of 25 nM to allow for Ab/antigen binding. Ab/antigen complexes are detected after adding alkaline phosphatase-conjugated neutravidin and alkaline phosphatase substrate, and subsequent measurement of the optical density at 560 nm. Positive binding is determined by a signal greater than 3 fold over the non-binding background signal.
row,Binder,binding result
1,B1,no binding
2,B2,no binding

# Biological target: T2, human ANGPTL8
# Experiment: single point ELISA
# Description: as §1
row,Binder,binding result
1,B1,no binding
2,B2,no binding

# Biological target: T3, human ANGPTL3/8 complex
# Experiment: ELISA; Ab captured by anti-human Fc; biotinylated antigen at 11.1 nM
# Description: (§2) ELISA Assay: Ab binding selectivity to either the ANGPTL3/8 complex, free ANGPTL3 or free ANGPTL8 is verified using standard ELISA assays. […] Ab from CHO supernatants after expression in CHO cells is then captured to the assay plate and results is an Ab concentration of 2 μg/ml. Biotinylated antigen (ANGPTL3, ANGPTL8 or ANGPTL3/8 complex) is added at varying concentrations by serial dilution to allow for Ab/antigen binding. Ab/antigen complexes are detected after the addition of alkaline phosphatase-conjugated neutravidin, and alkaline phosphatase substrate, and subsequent measurement of the optical density at 560 nm.
row,Binder,OD at 560 nm
1,B1,1.71 OD 560 nm
2,B2,1.74 OD 560 nm
3,B3,1.74 OD 560 nm
4,B4,1.64 OD 560 nm

# Biological target: T1, human ANGPTL3
# Experiment: as above
# Description: as §2
row,Binder,OD at 560 nm
1,B1,0.046 OD 560 nm
2,B2,0.062 OD 560 nm
3,B3,0.062 OD 560 nm
4,B4,0.06 OD 560 nm

# Biological target: T2, human ANGPTL8
# Experiment: as above
# Description: as §2
row,Binder,OD at 560 nm
1,B1,0.045 OD 560 nm
2,B2,0.062 OD 560 nm
3,B3,0.062 OD 560 nm
4,B4,0.048 OD 560 nm

# Biological target: T1, human ANGPTL3
# Experiment: ELISA; Ab captured by anti-human Fc; biotinylated antigen at 1.23 nM
# Description: as §2
row,Binder,OD at 560 nm
1,B1,0.043 OD 560 nm
2,B2,0.059 OD 560 nm
3,B3,0.059 OD 560 nm
4,B4,0.057 OD 560 nm

# Biological target: T2, human ANGPTL8
# Experiment: as above
# Description: as §2
row,Binder,OD at 560 nm
1,B1,0.043 OD 560 nm
2,B2,0.058 OD 560 nm
3,B3,0.058 OD 560 nm
4,B4,0.049 OD 560 nm

# Biological target: T1, human ANGPTL3
# Experiment: ELISA, antigen titration
# Description: as §2
row,Binder,binding result
1,B3,no binding (tested: 100 nM antigen)
2,B4,no binding (tested: 100 nM antigen)

# Biological target: T2, human ANGPTL8
# Experiment: ELISA, antigen titration
# Description: as §2
row,Binder,binding result
1,B3,no binding (tested: 100 nM antigen)
2,B4,no binding (tested: 100 nM antigen)

# Biological target: T3, human ANGPTL3/8 complex
# Experiment: ELISA; Ab captured by anti-human Fc; biotinylated antigen at 0.046 nM
# Description: as §2
row,Binder,OD at 560 nm
1,B1,0.078 OD 560 nm
2,B2,0.149 OD 560 nm
3,B3,0.149 OD 560 nm
4,B4,0.111 OD 560 nm

# Biological target: T1, human ANGPTL3
# Experiment: as above
# Description: as §2
row,Binder,OD at 560 nm
1,B1,0.06 OD 560 nm
2,B2,0.06 OD 560 nm
3,B3,0.06 OD 560 nm
4,B4,0.062 OD 560 nm

# Biological target: T2, human ANGPTL8
# Experiment: as above
# Description: as §2
row,Binder,OD at 560 nm
1,B1,0.051 OD 560 nm
2,B2,0.096 OD 560 nm
3,B3,0.096 OD 560 nm
4,B4,0.074 OD 560 nm
